Here are results for 1 substance from patent US20020142982A1, “Method for regulating angiogenesis” (priority 1999, published 2002).

This assay deals with HA-tagged wild-type Akt (UniProt P31749). The assay is described as follows: cell-based or functional assay.

Consider “T236A EDG-1 mutant receptor (from UniProt P21453 1-382)”, for which the restoration of S1P-induced HUVEC chemotaxis by increasing wild-type Akt virus was determined as 65%.
